“And” between values parts separate entries of the source, which are not always exact repeats. Equal values may be shown once.
What was measured:
[1] = molecular target: T1, KIF5B-CC3b-CC4 fragment, 6-histidine tag removed (human, UniProt P33176 771-914); assay: MST + other fluorescence titration; JIP3-N-RH1-lz3 wild type and alanine mutants labelled with NHS-fluorescein, constant at 20 nM; KIF5B-CC3b-CC4 without His tag titrated; 50 mM Tris pH 8.0, 200 mM NaCl, 10 mM MgCl2, 0.05% Tween 20; room temperature; Monolith NT.115; the change in overall fluorescence intensity was used for the Kd; 1:1 fit; details: both partners purified
T1 construct: kinesin-1 heavy chain KIF5B, human, NP_004512.1, residues 771-914 (last part of CC3 and CC4); source: E. coli Rosetta, purified (His-Trap, Superdex 75 gel filtration); not shown: His6, N-terminal, cleaved

[2] = molecular target: T2, KIF5B-CC3b-CC4-dt fragment (human, UniProt P33176 771-963); assay: MST; labelled JIP3/4 fragment (Blue-NHS dye) constant at 20 nM, KIF5B fragment titrated 120 pM to 4 uM (up to 38.2 uM when needed); 50 mM Tris pH 8.0, 200 mM NaCl, 10 mM MgCl2, 0.05% Tween 20; room temperature; Monolith NT.115, premium capillaries, MST-on 0.5-1.5 s; 1:1 Kd fit; three replicates; the paper calls its affinities relative measurements; details: both partners purified
T2 construct: kinesin-1 heavy chain KIF5B, human, NP_004512.1, residues 771-963 (last part of CC3, CC4 and distal tail); pET28 plasmid, NdeI/XhoI; the methods call it CC3-CC4-dt; also called KIF5B-CC3-CC4-dt; KIF5B-Tail; source: E. coli Rosetta, purified (His-Trap, Superdex 75 gel filtration); not shown: His6, N-terminal, kept

[3] = molecular target: the molecule itself; assay: SEC-MALS; JIP3/4-Nter fragments in solution, single peak; dimer; conditions not shown (Fig. S1B, Table S2)
[4] = molecular target: T2, KIF5B-CC3b-CC4-dt fragment; assay: MST; labelled JIP3/4 fragment (Blue-NHS dye) constant at 20 nM, KIF5B fragment titrated 120 pM to 4 uM (up to 38.2 uM when needed); 50 mM Tris pH 8.0, 200 mM NaCl, 10 mM MgCl2, 0.05% Tween 20; room temperature; Monolith NT.115, premium capillaries, MST-on 0.5-1.5 s; 1:1 Kd fit; three replicates; the paper calls its affinities relative measurements; details: both partners purified; remark: listed apart in the source
[5] = molecular target: T3, KIF5B-CC3b-CC4 fragment, with N-terminal 6-histidine tag (human, UniProt P33176 771-914); assay: as above; details: both partners purified
T3 construct: kinesin-1 heavy chain KIF5B, human, NP_004512.1, residues 771-914 (last part of CC3 and CC4); also called CC3-CC4; source: E. coli Rosetta, purified (His-Trap, Superdex 75 gel filtration); not shown: His6, N-terminal, kept
T3 sequence (P33176 771-914): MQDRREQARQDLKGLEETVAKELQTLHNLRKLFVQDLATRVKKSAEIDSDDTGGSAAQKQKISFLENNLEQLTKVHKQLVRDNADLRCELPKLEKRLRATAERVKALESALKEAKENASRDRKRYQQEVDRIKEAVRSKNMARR

T1 sequence (P33176 771-914): as above
T2 sequence (P33176 771-963): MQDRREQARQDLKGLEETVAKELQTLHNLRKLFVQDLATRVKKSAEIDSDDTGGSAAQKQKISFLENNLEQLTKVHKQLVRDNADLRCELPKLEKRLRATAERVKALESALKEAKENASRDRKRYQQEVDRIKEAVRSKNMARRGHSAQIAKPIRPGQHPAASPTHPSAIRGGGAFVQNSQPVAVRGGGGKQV

Row | Binder | Kd [1] [nM] | Kd [2] [nM] | also measured
1 | JIP3-N-RH1-lz3 E39A (domain or fragment, mouse, UniProt Q9ESN9-1 1-100, looked up, labelled with NHS-fluorescein (Thermo Fisher Scientific), JIP3, mouse, NP_038959.2, residues 1-100 (N-RH1-lz3); also called JIP3-E39A; source: E. coli Rosetta, purified (His-Trap, gel filtration, thrombin cleavage, gel filtration); not shown: His tag, N-terminal, cleaved; thioredoxin, N-terminal, cleaved) MMEIQMDEGGGVVVYQDDYCSGSVMSERVSGLAGSIYRAFERLIHCYDEEVVKELMPLVVNVLENLDSVLSENQEHEVELELLREDNEQLLTQYEREKAL | 395 ± 137 |  | 
2 | JIP3-N-RH1-lz3 R38A (domain or fragment, mouse, UniProt Q9ESN9-1 1-100, looked up, labelled with NHS-fluorescein (Thermo Fisher Scientific), JIP3, mouse, NP_038959.2, residues 1-100 (N-RH1-lz3); also called JIP3-R38A; source: E. coli Rosetta, purified (His-Trap, gel filtration, thrombin cleavage, gel filtration); not shown: His tag, N-terminal, cleaved; thioredoxin, N-terminal, cleaved) MMEIQMDEGGGVVVYQDDYCSGSVMSERVSGLAGSIYAEFERLIHCYDEEVVKELMPLVVNVLENLDSVLSENQEHEVELELLREDNEQLLTQYEREKAL | 151 ± 27.8 |  | 
3 | JIP3-N-RH1-lz3 E77Q (domain or fragment, mouse, UniProt Q9ESN9-1 1-100, looked up, labelled with a fluorescent dye in the MST assay (legend of Figure 4), JIP3, mouse, NP_038959.2, residues 1-100 (N-RH1-lz3), residue changed to that of JIP4; also called JIP3-E77Q; source: E. coli Rosetta, purified (His-Trap, gel filtration, thrombin cleavage, gel filtration); not shown: His tag, N-terminal, cleaved; thioredoxin, N-terminal, cleaved) MMEIQMDEGGGVVVYQDDYCSGSVMSERVSGLAGSIYREFERLIHCYDEEVVKELMPLVVNVLENLDSVLSENQEHQVELELLREDNEQLLTQYEREKAL |  | 46.8 ± 6.8 | 
4 | JIP3-N-RH1-lz3 L70F-S71A-E72Q-N73D (domain or fragment, mouse, UniProt Q9ESN9-1 1-100, looked up, labelled with a fluorescent dye in the MST assay (legend of Figure 4), JIP3, mouse, NP_038959.2, residues 1-100 (N-RH1-lz3), residues changed to those of JIP4; also called JIP3-L70F-S71A-E72Q-N73D; source: E. coli Rosetta, purified (His-Trap, gel filtration, thrombin cleavage, gel filtration); not shown: His tag, N-terminal, cleaved; thioredoxin, N-terminal, cleaved) MMEIQMDEGGGVVVYQDDYCSGSVMSERVSGLAGSIYREFERLIHCYDEEVVKELMPLVVNVLENLDSVFAQDQEHEVELELLREDNEQLLTQYEREKAL |  | 47.5 ± 4.6 | 
5 | JIP3-N-RH1-lz3 E41A (domain or fragment, mouse, UniProt Q9ESN9-1 1-100, looked up, labelled with NHS-fluorescein (Thermo Fisher Scientific), JIP3, mouse, NP_038959.2, residues 1-100 (N-RH1-lz3); also called JIP3-E41A; source: E. coli Rosetta, purified (His-Trap, gel filtration, thrombin cleavage, gel filtration); not shown: His tag, N-terminal, cleaved; thioredoxin, N-terminal, cleaved) MMEIQMDEGGGVVVYQDDYCSGSVMSERVSGLAGSIYREFARLIHCYDEEVVKELMPLVVNVLENLDSVLSENQEHEVELELLREDNEQLLTQYEREKAL | 204 ± 57.8 |  | 
6 | JIP3-N-RH1-lz3 fragment (domain or fragment, mouse, UniProt Q9ESN9-1 1-100, looked up, labelled with the dye NHS-NT-488 (Blue-NHS, NanoTemper) in Tables 1 and 3; labelled with NHS-fluorescein (Thermo Fisher Scientific) in Table 2, JIP3, mouse, NP_038959.2, residues 1-100 (N-terminus, RH1 domain and first three heptad repeats of LZI); Unlabelled in SEC-MALS; also called JIP3-WT; wild-type JIP3-N-RH1-lz3; source: E. coli Rosetta, purified (His-Trap, gel filtration, thrombin cleavage, gel filtration); not shown: His tag, N-terminal, cleaved; thioredoxin, N-terminal, cleaved) MMEIQMDEGGGVVVYQDDYCSGSVMSERVSGLAGSIYREFERLIHCYDEEVVKELMPLVVNVLENLDSVLSENQEHEVELELLREDNEQLLTQYEREKAL | 148 ± 21.4 | 20.6 ± 2.6 | stoichiometry N [3]: 2; Kd [4]: 14.7 nM and 18.3 nM; Kd [5]: 77.7 ± 12 nM
7 | JIP3-N-RH1-lz3 E54A (domain or fragment, mouse, UniProt Q9ESN9-1 1-100, looked up, labelled with NHS-fluorescein (Thermo Fisher Scientific), JIP3, mouse, NP_038959.2, residues 1-100 (N-RH1-lz3); also called JIP3-E54A; source: E. coli Rosetta, purified (His-Trap, gel filtration, thrombin cleavage, gel filtration); not shown: His tag, N-terminal, cleaved; thioredoxin, N-terminal, cleaved) MMEIQMDEGGGVVVYQDDYCSGSVMSERVSGLAGSIYREFERLIHCYDEEVVKALMPLVVNVLENLDSVLSENQEHEVELELLREDNEQLLTQYEREKAL | 226 ± 26.4 |  | 
8 | JIP3-N-RH1-lz3 N65A (domain or fragment, mouse, UniProt Q9ESN9-1 1-100, looked up, labelled with NHS-fluorescein (Thermo Fisher Scientific), JIP3, mouse, NP_038959.2, residues 1-100 (N-RH1-lz3); also called JIP3-N65A; source: E. coli Rosetta, purified (His-Trap, gel filtration, thrombin cleavage, gel filtration); not shown: His tag, N-terminal, cleaved; thioredoxin, N-terminal, cleaved) MMEIQMDEGGGVVVYQDDYCSGSVMSERVSGLAGSIYREFERLIHCYDEEVVKELMPLVVNVLEALDSVLSENQEHEVELELLREDNEQLLTQYEREKAL | 118 ± 23 |  | 
9 | JIP3-N-RH1-lz3 H45G-C46R (domain or fragment, mouse, UniProt Q9ESN9-1 1-100, looked up, labelled with a fluorescent dye in the MST assay (legend of Figure 4), JIP3, mouse, NP_038959.2, residues 1-100 (N-RH1-lz3), residues changed to those of JIP4; also called JIP3-H45G-C46R; source: E. coli Rosetta, purified (His-Trap, gel filtration, thrombin cleavage, gel filtration); not shown: His tag, N-terminal, cleaved; thioredoxin, N-terminal, cleaved) MMEIQMDEGGGVVVYQDDYCSGSVMSERVSGLAGSIYREFERLIGRYDEEVVKELMPLVVNVLENLDSVLSENQEHEVELELLREDNEQLLTQYEREKAL |  | 198 ± 27.3 | 
10 | JIP3-N-RH1-lz3 R42A (domain or fragment, mouse, UniProt Q9ESN9-1 1-100, looked up, labelled with NHS-fluorescein (Thermo Fisher Scientific), JIP3, mouse, NP_038959.2, residues 1-100 (N-RH1-lz3); also called JIP3-R42A; source: E. coli Rosetta, purified (His-Trap, gel filtration, thrombin cleavage, gel filtration); not shown: His tag, N-terminal, cleaved; thioredoxin, N-terminal, cleaved) MMEIQMDEGGGVVVYQDDYCSGSVMSERVSGLAGSIYREFEALIHCYDEEVVKELMPLVVNVLENLDSVLSENQEHEVELELLREDNEQLLTQYEREKAL | 90.8 ± 12.6 |  | 
11 | JIP3-N-RH1-lz3 N61A (domain or fragment, mouse, UniProt Q9ESN9-1 1-100, looked up, labelled with a fluorescent dye in the MST assay (legend of Figure 4), JIP3, mouse, NP_038959.2, residues 1-100 (N-RH1-lz3), residue changed to that of JIP4; also called JIP3-N61A; Asn61 mutant; source: E. coli Rosetta, purified (His-Trap, gel filtration, thrombin cleavage, gel filtration); not shown: His tag, N-terminal, cleaved; thioredoxin, N-terminal, cleaved) MMEIQMDEGGGVVVYQDDYCSGSVMSERVSGLAGSIYREFERLIHCYDEEVVKELMPLVVAVLENLDSVLSENQEHEVELELLREDNEQLLTQYEREKAL |  | 29.9 ± 3 | 
12 | JIP3-N-RH1-lz3 E27A (domain or fragment, mouse, UniProt Q9ESN9-1 1-100, looked up, labelled with NHS-fluorescein (Thermo Fisher Scientific), JIP3, mouse, NP_038959.2, residues 1-100 (N-RH1-lz3); also called JIP3-E27A; source: E. coli Rosetta, purified (His-Trap, gel filtration, thrombin cleavage, gel filtration); not shown: His tag, N-terminal, cleaved; thioredoxin, N-terminal, cleaved) MMEIQMDEGGGVVVYQDDYCSGSVMSARVSGLAGSIYREFERLIHCYDEEVVKELMPLVVNVLENLDSVLSENQEHEVELELLREDNEQLLTQYEREKAL | 215 ± 57.3 |  | 
13 | JIP4-RH1-lz3 fragment (domain or fragment, UniProt O60271 18-95, looked up, labelled with a fluorescent dye in the MST assay (legend of Figure 4), JIP4, RH1 domain and first three heptad repeats of LZI, without the 17-residue N-terminus) AVMSERVSGLAGSIYREFERLIGRYDEEVVKELMPLVVAVLENLDSVFAQDQEHQVELELLRDDNEQLITQYEREKAL |  | 682 ± 187 | stoichiometry N [3]: 2
14 | JIP4-N-RH1-lz3 fragment (domain or fragment, UniProt O60271 1-95, looked up, labelled with a fluorescent dye in the MST assay (legend of Figure 4), JIP4, N-terminus (17 residues), RH1 domain and first three heptad repeats of LZI; also called wild-type JIP4-N-RH1-lz3) MELEDGVVYQEEPGGSGAVMSERVSGLAGSIYREFERLIGRYDEEVVKELMPLVVAVLENLDSVFAQDQEHQVELELLRDDNEQLITQYEREKAL |  | 777 ± 146 | stoichiometry N [3]: 2
15 | JIP3-N-RH1-LZI fragment (domain or fragment, mouse, UniProt Q9ESN9-1 1-187, looked up, labelled with the dye NHS-NT-488 (Protein Labelling Kit Blue-NHS, NanoTemper) in the MST assay, Unlabelled in SEC-MALS; also called JIP3-N-RH1-LZ1; JIP3-Nter; source: E. coli Rosetta, purified (His-Trap, gel filtration, thrombin cleavage, gel filtration); not shown: His tag, N-terminal, cleaved; thioredoxin, N-terminal, cleaved) MMEIQMDEGGGVVVYQDDYCSGSVMSERVSGLAGSIYREFERLIHCYDEEVVKELMPLVVNVLENLDSVLSENQEHEVELELLREDNEQLLTQYEREKALRKQAEEKFIEFEDALEQEKKELQIQVEHYEFQTRQLELKAKNYADQISRLEERESEMKKEYNALHQRHTEMIQTYVEHIERSKMQQV |  |  | stoichiometry N [3]: 2; Kd [4]: 18.8 ± 4 nM
16 | JIP3-RH1-lz3 fragment (domain or fragment, mouse, UniProt Q9ESN9-1 22-100, looked up, labelled with the dye NHS-NT-488 (Protein Labelling Kit Blue-NHS, NanoTemper) in the MST assay, JIP3, mouse, NP_038959.2, residues 22-100 (RH1 domain and first three heptad repeats of LZI); Unlabelled in SEC-MALS; source: E. coli Rosetta, purified (His-Trap, gel filtration, thrombin cleavage, gel filtration); not shown: His tag, N-terminal, cleaved; thioredoxin, N-terminal, cleaved) GSVMSERVSGLAGSIYREFERLIHCYDEEVVKELMPLVVNVLENLDSVLSENQEHEVELELLREDNEQLLTQYEREKAL |  |  | stoichiometry N [3]: 2; Kd [4]: 79.3 ± 15.9 nM
17 | JIP3-RH1-LZI fragment (domain or fragment, UniProt Q9ESN9 22-187, looked up, labelled with the dye NHS-NT-488 (Protein Labelling Kit Blue-NHS, NanoTemper) in the MST assay, JIP3, RH1 domain followed by the entire LZI coiled-coil, without the N-terminus; also called RH1-LZ1) GSVMSERVSGLAGSIYREFERLIHCYDEEVVKELMPLVVNVLENLDSVLSENQEHEVELELLREDNEQLLTQYEREKALRKQAEEKFIEFEDALEQEKKELQIQVEHYEFQTRQLELKAKNYADQISRLEERESEMKKEYNALHQRHTEMIQTYVEHIERSKMQQV |  |  | Kd [4]: 50.5 ± 12.9 nM
